Values of other authors, collected in paper PMC554781.

Molecular target: CD200R (Homo sapiens) (UniProt Q8TD46)
Chain of UniProt Q8TD46 (Q8TD46 25-265): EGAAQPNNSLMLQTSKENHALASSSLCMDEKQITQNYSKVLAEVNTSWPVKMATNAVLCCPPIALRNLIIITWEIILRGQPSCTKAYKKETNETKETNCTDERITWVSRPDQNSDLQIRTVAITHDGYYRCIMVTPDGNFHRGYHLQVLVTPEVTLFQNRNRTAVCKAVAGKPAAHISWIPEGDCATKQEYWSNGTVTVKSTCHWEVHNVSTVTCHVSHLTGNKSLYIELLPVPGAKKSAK

## CD200 (from UniProt P41217)
  Kd: 0.5 µM
